{"source": "patent US20150274841A1", "about": "(DYAX, published 2015)", "binders": {"B1": {"name": "X115-F02 (antibody, human IgG1, kappa, V domains shown)", "VH": "EVQLLESGGGLVQPGGSLRLSCAASGFTFSHYIMMWVRQAPGKGLEWVSGIYSSGGITVYADSVKGRFTISRDNSKNTLYLQMNSLRAEDTAVYYCAYRRIGVPRRDEFDIWGQGTMVTVSS", "VL": "DIQMTQSPSTLSASVGDRVTITCRASQSISSWLAWYQQKPGKAPKLLIYKASTLESGVPSRFSGSGSGTEFTLTISSLQPDDFATYYCQQYNTYWTFGQGTKVEIKR", "notes": "also called mutant X115-F02"}}, "key": {"[1]": {"molecular_target": "T1, wild type plasma kallikrein catalytic domain (recombinant, Pichia pastoris) (human, UniProt P03952 391-638)", "T1 construct": "also called wild-type PKal", "T1 sequence (P03952 391-638)": "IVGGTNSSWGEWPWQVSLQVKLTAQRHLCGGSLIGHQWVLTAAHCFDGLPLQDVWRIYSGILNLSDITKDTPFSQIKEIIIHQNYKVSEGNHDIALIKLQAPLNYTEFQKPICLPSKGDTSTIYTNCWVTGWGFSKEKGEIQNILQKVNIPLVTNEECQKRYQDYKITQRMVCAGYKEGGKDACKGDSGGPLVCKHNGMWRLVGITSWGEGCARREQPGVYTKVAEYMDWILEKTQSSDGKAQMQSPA", "experiment": "enzyme inhibition assay: rate (F/s) of substrate peptide cleavage by PKal against [IgG] (nM), fitted to the Morrison equation; apparent Ki (Ki,app)", "protocol": "(§1) Briefly, PKal and a Fab at various concentrations are incubated together for 1 hour at 30° C. A substrate peptide (cleavable by PKal) is then added to this PKal-Fab mixture. The rate of substrate peptide cleavage/proteolysis is then measured, and plotted against the concentrations of the Fab. This plot is then fit to the Morrison equation, which calculates the K_{i,app} value. The results thus obtained are shown in FIGS. 5A-5D and Table 3 below:\n(§2) The inhibitory activity of X115-F02 against the wild-type PKal and the mutants were carried out using the method described in Example 3 above and the K_{i,app} values were determined."}, "[2]": {"molecular_target": "T2, plasma kallikrein catalytic domain Mutant 1 (S478A, N481A, S506A, Y507A) (human, UniProt P03952 391-638)", "T2 construct": "Expressed in Pichia pastoris", "T2 sequence (P03952 391-638 S478A/N481A/C503S/S506A/K507A limits assumed)": "as the sequence (P03952 391-638) above, with S88A, N91A, C113S, S116A, K117A counted along it", "experiment": "enzyme inhibition assay: rate (F/s) of substrate peptide cleavage by PKal against [IgG] (nM), fitted to the Morrison equation; apparent Ki (Ki,app)", "protocol": "as §1, §2"}, "[3]": {"molecular_target": "T3, plasma kallikrein catalytic domain Mutant 4 (N396A, S398A, W399A) (human, UniProt P03952 391-638)", "T3 construct": "Expressed in Pichia pastoris", "T3 sequence (P03952 391-638 N396A/S398A/W399A)": "as the sequence (P03952 391-638) above, with N6A, S8A, W9A counted along it", "experiment": "enzyme inhibition assay: rate (F/s) of substrate peptide cleavage by PKal against [IgG] (nM), fitted to the Morrison equation; apparent Ki (Ki,app)", "protocol": "as §1, §2"}, "[4]": {"molecular_target": "T4, plasma kallikrein catalytic domain Mutant 2 (R551A, Q553A, Y555A, T558A, R560A) (human, UniProt P03952 391-638)", "T4 construct": "Expressed in Pichia pastoris", "T4 sequence (P03952 391-638 R551A/Q553A/Y555A/T558A/R560A)": "as the sequence (P03952 391-638) above, with R161A, Q163A, Y165A, T168A, R170A counted along it", "experiment": "enzyme inhibition assay: rate (F/s) of substrate peptide cleavage by PKal against [IgG] (nM), fitted to the Morrison equation; apparent Ki (Ki,app)", "protocol": "as §1, §2"}, "[5]": {"molecular_target": "T4, plasma kallikrein catalytic domain …", "experiment": "Ki,app; IgG inhibition of PKal catalytic domain cleavage of a substrate peptide, Morrison fit", "protocol": "as §1, §2"}}}
{"binder": "B1", "values": [{"measurement": "Ki", "setting": "[1]", "result": 0.09, "unit": "nM"}, {"measurement": "Ki", "setting": "[2]", "result": 0.14, "unit": "nM"}, {"measurement": "Ki", "setting": "[3]", "result": 0.1, "unit": "nM"}, {"measurement": "Ki", "setting": "[4]", "result": 5.9, "unit": "nM"}, {"measurement": "fold reduction of potency (Ki,app) against wild-type PKal", "setting": "[5]", "result": "~65", "unit": "fold"}]}
